Tests used:
[1] = biological target: ASB9 bait in the pAcGFP1-C vector (pAcGFP1-ASB9) (bovine); assay: co-IP; Matchmaker Co-IP system; HEK 293 cells co-transfected with the pAcGFP1 bait and the pProLabel prey; co-immunoprecipitation with protein G Plus/A agarose beads, read by the ProLabel enzyme complementation assay (RLU every 5 min for 45 min)
[2] = biological target: pAcGFP1-53 (positive control bait) (UniProt P02340); assay: as above
UniProt P02340, sequence (P02340 whole entry): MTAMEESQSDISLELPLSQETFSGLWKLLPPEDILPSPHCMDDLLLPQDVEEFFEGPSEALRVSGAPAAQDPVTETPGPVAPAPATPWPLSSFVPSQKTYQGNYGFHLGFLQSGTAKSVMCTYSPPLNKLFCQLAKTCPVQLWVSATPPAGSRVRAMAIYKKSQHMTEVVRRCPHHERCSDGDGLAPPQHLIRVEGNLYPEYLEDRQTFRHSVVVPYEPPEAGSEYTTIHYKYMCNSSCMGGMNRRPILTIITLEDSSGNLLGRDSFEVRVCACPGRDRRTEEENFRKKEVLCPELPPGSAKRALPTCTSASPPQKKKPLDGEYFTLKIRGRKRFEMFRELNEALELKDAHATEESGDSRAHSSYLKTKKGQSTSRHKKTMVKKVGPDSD

| Substance | fold induction of ProLabel enzymatic activity after co-IP, against the negative control, at 40 minutes [1] | fold induction of ProLabel enzymatic activity after co-IP (positive control) [2] |
| --- | --- | --- |
| Hypoxia inducible factor 1, alpha subunit (HIF1A) in the pProLabel-C vector (natural protein) | 13 fold |  |
| ProLabel-T (positive control prey) (natural protein) |  | 37 fold |
| Tumor necrosis factor alpha-induced protein 6 (TNFAIP6) in the pProLabel-C vector (natural protein) | 18 fold |  |

From article PMC6392328
